# Read-outs that look alike come from different tables or passages of the source.
# T1: His-human LIGHT (human)
# T1 chain: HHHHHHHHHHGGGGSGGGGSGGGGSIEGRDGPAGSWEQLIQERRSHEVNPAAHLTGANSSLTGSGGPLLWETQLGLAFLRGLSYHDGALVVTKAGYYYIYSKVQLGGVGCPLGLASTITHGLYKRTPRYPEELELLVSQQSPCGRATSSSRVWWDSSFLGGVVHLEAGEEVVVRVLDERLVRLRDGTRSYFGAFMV
# T2: His-cynomolgus monkey LIGHT (cynomolgus monkey)
# T2 construct: also called His-cynoLIGHT
# T2 chain: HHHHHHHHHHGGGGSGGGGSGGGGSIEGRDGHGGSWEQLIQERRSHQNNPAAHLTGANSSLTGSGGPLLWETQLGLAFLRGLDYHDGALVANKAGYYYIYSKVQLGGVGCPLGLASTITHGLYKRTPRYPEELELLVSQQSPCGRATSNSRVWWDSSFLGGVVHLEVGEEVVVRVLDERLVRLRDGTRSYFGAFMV
# T3: His-mouse LIGHT (mouse)
# T3 construct: also called His-musLIGHT
# T3 chain: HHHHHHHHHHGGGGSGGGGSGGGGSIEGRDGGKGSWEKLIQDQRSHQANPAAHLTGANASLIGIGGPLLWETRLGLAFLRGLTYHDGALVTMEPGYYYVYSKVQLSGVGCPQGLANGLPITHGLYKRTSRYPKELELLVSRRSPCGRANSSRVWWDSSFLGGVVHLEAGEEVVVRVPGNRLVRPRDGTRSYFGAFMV
# Columns and labels:
# His-human LIGHT [1] = target: T1, His-human LIGHT; experiment: cell-based or functional assay
# [2] = target: LIGHT on the surface of HEK293-LIGHT stable cells (human, UniProt O43557 1-240); experiment: cell-based or functional assay
# His-human LIGHT [3] = target: T1, His-human LIGHT; experiment: ELISA, His-huLIGHT coated
# [4] = target: T2, His-cynomolgus monkey LIGHT; experiment: ELISA, His-cynoLIGHT coated
# His-human LIGHT [5] = target: T1, His-human LIGHT; experiment: SPR, Biacore 8K, antibody on CM5 chip, human LIGHT
# hFc-human LIGHT [6] = target: T4, hFc-human LIGHT (human); experiment: competition ELISA, LTβR-His coated, hFc-huLIGHT added
# T4 construct: also called hFc-huLIGHT
# His-human LIGHT [7] = target: T1, His-human LIGHT; experiment: cell-based or functional assay
# His-human LIGHT [8] = target: T1, His-human LIGHT; experiment: ELISA, His-huLIGHT coated
# [9] = target: T2, His-cynomolgus monkey LIGHT; experiment: SPR, Biacore 8K, antibody on CM5 chip
# His-mouse LIGHT = target: T3, His-mouse LIGHT; experiment: ELISA, His-musLIGHT coated
# His-human LIGHT [10] = target: T1, His-human LIGHT; experiment: SPR, Biacore 8K, antibody on CM5 chip
# His-human LIGHT [11] = target: T1, His-human LIGHT; experiment: ELISA, His-huLIGHT coated
# hFc-human LIGHT [12] = target: T4, hFc-human LIGHT; experiment: competition ELISA, LTβR-His coated, hFc-huLIGHT added; remark: listed apart in the source
Binder,"IC50, LTβR NF-κB luciferase reporter, free LIGHT (His-human LIGHT [1])","IC50, LTβR NF-κB luciferase reporter, HEK293-LIGHT cells [2]",EC50 (His-human LIGHT [3]),EC50 [4],Kd (His-human LIGHT [5]),koff (His-human LIGHT [5]),kon (His-human LIGHT [5]),IC50 (hFc-human LIGHT [6]),EC50 (His-human LIGHT [11]),IC50 (hFc-human LIGHT [12]),also measured
"hum_LT-m37-7 (antibody, human IgG4, V domains shown, humanized from LT-m37) VH: QVQLVQSGAEVKKPGASVKVSCKASGYSFTGYFINWVRQAPGQGLEWIGRIYPYNVNTFYNQNFKGRATMTADKSTSTAYMELSSLRSEDTAVYYCGRGTHYYGSSGAMDYWGQGTLVTVSS VL: EIVMTQSPATLSVSPGERATLSCKASQNVGTAVAWYQQKPGQSPRLLIYSASNRYTGIPARFSGSGSGTEFTLTISSLQSEDFAVYFCQQYSSYPYTFGGGTKVEIK",0.135 mg/L,3.72 mg/L,0.0801 mg/L,0.0474 nM,0.041 nM,5.34e-05 s⁻¹,1.3e+06 M⁻¹ s⁻¹,0.069 nM,–,–,–
"hum_LT-m37-8 (antibody, human IgG4, V domains shown, humanized from LT-m37) VH: QVQLVQSGAEVKKPGASVKVSCKASGYSFTGYFINWVRQAPGQGLEWIGRIYPYNVNTFYNQNFKGRVTMTADKSTSTAYMELSSLRSEDTAVYYCGRGTHYYGSSGAMDYWGQGTLVTVSS VL: EIVMTQSPATLSVSPGERATLSCKASQNVGTAVAWYQQKPGQSPRLLIYSASNRYTGIPARFSGSGSGTEFTLTISSLQSEDFAVYFCQQYSSYPYTFGGGTKVEIK",0.17 mg/L,3.22 mg/L,0.0795 mg/L,0.0449 nM,0.038 nM,4.86e-05 s⁻¹,1.28e+06 M⁻¹ s⁻¹,0.0676 nM,–,–,–
"hum_LT-m37-9 (antibody, human IgG4, V domains shown, humanized from LT-m37) VH: QVQLVQSGAEVKKPGASVKVSCKASGYSFTGYFINWVRQAPGQSLEWIGRIYPYNVNTFYNQNFKGRATLTADKSTSTAYMELSSLRSEDTAVYYCGRGTHYYGSSGAMDYWGQGTLVTVSS VL: EIVLTQSPATLSVSPGERATLSCKASQNVGTAVAWYQQKPGQSPRLLIYSASNRYTGIPARFSGSGSGTEFTLTISSLQSEDFAVYYCQQYSSYPYTFGGGTKVEIK",0.227 mg/L,3.86 mg/L,0.0825 mg/L,0.0478 nM,0.383 nM,8.03e-05 s⁻¹,210000 M⁻¹ s⁻¹,0.083 nM,–,–,–
"hum_LT-m37-10 (antibody, human IgG4, V domains shown, humanized from LT-m37) VH: QVQLVQSGAEVKKPGASVKVSCKASGYSFTGYFINWVRQAPGQGLEWIGRIYPYNVNTFYNQNFKGRATLTADKSTSTAYMELSSLRSEDTAVYYCGRGTHYYGSSGAMDYWGQGTLVTVSS VL: EIVLTQSPATLSVSPGERATLSCKASQNVGTAVAWYQQKPGQSPRLLIYSASNRYTGIPARFSGSGSGTEFTLTISSLQSEDFAVYYCQQYSSYPYTFGGGTKVEIK",0.153 mg/L,4.46 mg/L,0.0918 mg/L,0.0463 nM,–,–,–,–,–,–,–
"hum_LT-m37-11 (antibody, human IgG4, V domains shown, humanized from LT-m37) VH: QVQLVQSGAEVKKPGASVKVSCKASGYSFTGYFINWVRQAPGQGLEWIGRIYPYNVNTFYNQNFKGRATMTADKSTSTAYMELSSLRSEDTAVYYCGRGTHYYGSSGAMDYWGQGTLVTVSS VL: EIVLTQSPATLSVSPGERATLSCKASQNVGTAVAWYQQKPGQSPRLLIYSASNRYTGIPARFSGSGSGTEFTLTISSLQSEDFAVYYCQQYSSYPYTFGGGTKVEIK",0.203 mg/L,2.93 mg/L,0.0907 mg/L,0.0494 nM,0.062 nM,7.69e-05 s⁻¹,1.24e+06 M⁻¹ s⁻¹,0.0864 nM,–,–,–
"hum_LT-m37-12 (antibody, human IgG4, V domains shown, humanized from LT-m37) VH: QVQLVQSGAEVKKPGASVKVSCKASGYSFTGYFINWVRQAPGQGLEWIGRIYPYNVNTFYNQNFKGRVTMTADKSTSTAYMELSSLRSEDTAVYYCGRGTHYYGSSGAMDYWGQGTLVTVSS VL: EIVLTQSPATLSVSPGERATLSCKASQNVGTAVAWYQQKPGQSPRLLIYSASNRYTGIPARFSGSGSGTEFTLTISSLQSEDFAVYYCQQYSSYPYTFGGGTKVEIK",0.144 mg/L,2.57 mg/L,0.0878 mg/L,0.053 nM,0.0575 nM,6.75e-05 s⁻¹,1.18e+06 M⁻¹ s⁻¹,0.0773 nM,–,–,–
"LT-m17 (antibody, human IgG4, V domains shown) VH: QVQLQQSGPELVKPGASVKISCKASGYSFTGYFMNWVKQSHGKSLEWIGRIYPYSGDTFYNQKFNNKATLTVDKSSSTAHLELLSLTSEDSAVYYCGRSEHFGRNYGTGAVDYWGQGTSVTVSS VL: DVVMTQTPLSLPVSLGDQASISCRSSQGLVHSNGNTYLHWYLQKPGQSPKLLIYKVSNRFSGVPDRFSGSGSGTDFTLKISRVEAEDLGIYFCSQSTHVPYTFGGGTKLEIK",–,–,–,–,–,–,–,–,–,–,"IC50, HVEM NF-κB luciferase reporter (293T-HVEM-NF-κB-Luc), free LIGHT (His-human LIGHT [7]): 0.184 mg/L; EC50 (His-human LIGHT [8]): 0.0871 mg/L; Kd [9]: 0.0582 nM; koff [9]: 4.24e-06 s⁻¹; kon [9]: 72700 M⁻¹ s⁻¹"
"LT-m18 (antibody, V domains shown) VH: EVKLLESGPELVKPGASVKISCKASGYSFTGYFMNWVKQSHGKSLEWIGRIYPYSGDTFYNQKFNNKATLTVDKSSSTAHLELLSLTSEDSAVYYCGRSEHFGRNYGTGAVDYWGQGTSVTVSS VL: DIVLTQSPLSLPVSLGDQASISCRSSQSLVHSNGNTYLHWYLQKPGQSPKLLIYKVSNRFSGVPDRFSGSGSGTDFTLKISRVEAEDLGVYFCSQSTHVPLTFGDGTRLEIK",–,–,–,–,–,–,–,–,–,–,EC50 (His-human LIGHT [8]): 0.0835 mg/L; Kd [9]: 0.16 nM; koff [9]: 1.26e-05 s⁻¹; kon [9]: 79100 M⁻¹ s⁻¹
"LT-m64 (antibody, human IgG4, V domains shown) VH: EVKLEESGAELVKPGASVRLSCKTSGYTFTNYYVYWVKQRPGQGLEWIGEINPTNGDPNFNEKFKSKATLTVDKSSSTAYMHLSSLTSEDSAVYYCTRSNWDYGNAMDFWGQGTSVTVSS VL: DIVMTQSPASLAVSLGQRATISCKASQSVDFDGDGYMNWYQQKPGQPPKLLIYKASHLDSGIPARFSASGSGTDFTLNIHPVEEEDAATYYCQQSIEDPFTFGSGTKLEIK",–,–,–,–,–,–,–,–,–,–,"binding result (His-mouse LIGHT): no binding; IC50, HVEM NF-κB luciferase reporter (293T-HVEM-NF-κB-Luc), free LIGHT (His-human LIGHT [7]): 0.264 mg/L; EC50 (His-human LIGHT [8]): 0.0112 mg/L; Kd (His-human LIGHT [10]): 0.0557 nM; koff (His-human LIGHT [10]): 5.61e-05 s⁻¹; kon (His-human LIGHT [10]): 1.01e+06 M⁻¹ s⁻¹; Kd [9]: 0.0487 nM; koff [9]: 4.89e-05 s⁻¹; kon [9]: 1e+06 M⁻¹ s⁻¹"
"hum_LT-m85-5 (antibody, human IgG4, V domains shown, humanized from LT-m85) VH: QVQLVQSGAEVKKPGASVKVSCKASGYTFTSYNVHWVRQAPGQGLEWIGAVYPGNGDTSYNQKFKGRATLTADKSTSTAYMELSSLRSEDTAVYYCARGSYYYTSSYFDHWGQGTLVTVSS VL: DIVLTQSPDSLAVSLGERATINCKASQSVDFDGDSYMNWYQQKPGQPPKLLIYTASNLESGIPDRFSGSGSGTDFTLTISSLQAEDVAVYYCQQSYEDPFTFGQGTKVEIK",–,–,–,–,–,–,–,–,0.0061 nM,0.174 nM,–
"hum_LT-m85-6 (antibody, human IgG4, V domains shown, humanized from LT-m85) VH: QVQLVQSGAEVKKPGASVKVSCKASGYTFTSYNVHWVRQAPGQGLEWMGAVYPGNGDTSYNQKFKGRATLTADKSTSTAYMELSSLRSEDTAVYYCARGSYYYTSSYFDHWGQGTLVTVSS VL: DIVLTQSPDSLAVSLGERATINCKASQSVDFDGDSYMNWYQQKPGQPPKLLIYTASNLESGIPDRFSGSGSGTDFTLTISSLQAEDVAVYYCQQSYEDPFTFGQGTKVEIK",–,–,–,–,–,–,–,–,0.00479 nM,0.195 nM,–
"hum_LT-m85-7 (antibody, human IgG4, V domains shown, humanized from LT-m85) VH: QVQLVQSGAEVKKPGASVKVSCKASGYTFTSYNVHWVRQAPGQGLEWIGAVYPGNGDTSYNQKFKGRATLTADKSTSTVYMELSSLRSEDTAVYYCARGSYYYTSSYFDHWGQGTLVTVSS VL: DIVLTQSPDSLAVSLGERATINCKASQSVDFDGDSYMNWYQQKPGQPPKLLIYTASNLESGIPDRFSGSGSGTDFTLTISSLQAEDVAVYYCQQSYEDPFTFGQGTKVEIK",–,–,–,–,–,–,–,–,0.00542 nM,0.223 nM,–
"hum_LT-m85-8 (antibody, human IgG4, V domains shown, humanized from LT-m85) VH: QVQLVQSGAEVKKPGASVKVSCKASGYTFTSYNVHWVRQAPGQGLEWIGAVYPGNGDTSYNQKFKGRATLTADKSTSTAYMELSSLRSEDTAVYYCARGSYYYTSSYFDHWGQGTLVTVSS VL: DIVMTQSPDSLAVSLGERATINCKASQSVDFDGDSYMNWYQQKPGQPPKLLIYTASNLESGVPDRFSGSGSGTDFTLTISSLQAEDVAVYYCQQSYEDPFTFGQGTKVEIK",–,–,–,–,–,–,–,–,0.00951 nM,0.189 nM,–
"hum_LT-m85-9 (antibody, human IgG4, V domains shown, humanized from LT-m85) VH: QVQLVQSGAEVKKPGASVKVSCKASGYTFTSYNVHWVRQAPGQGLEWIGAVYPGNGDTSYNQKFKGRATLTADKSTSTVYMELSSLRSEDTAVYYCARGSYYYTSSYFDHWGQGTLVTVSS VL: DIVMTQSPDSLAVSLGERATINCKASQSVDFDGDSYMNWYQQKPGQPPKLLIYTASNLESGVPDRFSGSGSGTDFTLTISSLQAEDVAVYYCQQSYEDPFTFGQGTKVEIK",–,–,–,–,–,–,–,–,0.002 nM,0.204 nM,–

# Source: EP4596580A1 (Staidson (Beijing) Biopharmaceuticals Co., Ltd., dated 2025)
